Values quoted from earlier work in publication PMC10173724.

Biological target: FABP3 (Homo sapiens) (UniProt P05413)

Kd: 2.1 nM
Substance: alpha-synuclein C-terminal peptide Y133F/Y136F 130-140 (from UniProt P37840)
